Laboratory results published in paper PMC9482650, “Quantitative fragmentomics allow affinity mapping of interactomes” (Nature Communications, 2022).

T1: SHANK2, Q9UPX8
T1 sequence (Q9UPX8 621-730, limits assumed, looked up): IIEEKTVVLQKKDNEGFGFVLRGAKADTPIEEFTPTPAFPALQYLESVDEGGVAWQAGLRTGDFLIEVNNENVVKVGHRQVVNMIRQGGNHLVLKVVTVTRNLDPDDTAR

T2: PDZD2_5, O15018
T2 sequence (O15018 2617-2716, limits assumed, looked up): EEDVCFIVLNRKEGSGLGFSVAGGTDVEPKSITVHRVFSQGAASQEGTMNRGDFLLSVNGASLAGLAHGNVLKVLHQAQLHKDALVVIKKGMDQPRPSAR

T3: PDZD2_1, O15018
T3 sequence (O15018 80-192, limits assumed, looked up): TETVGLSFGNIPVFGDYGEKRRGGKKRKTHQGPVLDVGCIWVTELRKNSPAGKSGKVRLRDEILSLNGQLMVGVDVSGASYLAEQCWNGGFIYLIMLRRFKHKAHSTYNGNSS

T4: GIPC1, O14908
T4 sequence (O14908 128-223, limits assumed, looked up): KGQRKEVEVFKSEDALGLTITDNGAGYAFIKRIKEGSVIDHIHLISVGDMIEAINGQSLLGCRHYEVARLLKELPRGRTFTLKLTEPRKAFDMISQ

T5: USH1C_2, Q9Y6N9
T5 sequence (Q9Y6N9 206-303, limits assumed, looked up): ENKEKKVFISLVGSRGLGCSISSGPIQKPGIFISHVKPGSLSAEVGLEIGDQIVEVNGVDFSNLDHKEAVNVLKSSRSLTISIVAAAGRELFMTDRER

T6: NHERF1_1, O14745
T6 sequence (O14745 9-104, limits assumed, looked up): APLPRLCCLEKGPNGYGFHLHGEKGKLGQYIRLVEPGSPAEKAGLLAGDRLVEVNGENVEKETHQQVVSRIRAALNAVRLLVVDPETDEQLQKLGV

T7: TJP3_2, O95049
T7 sequence (O95049 190-282, limits assumed, looked up): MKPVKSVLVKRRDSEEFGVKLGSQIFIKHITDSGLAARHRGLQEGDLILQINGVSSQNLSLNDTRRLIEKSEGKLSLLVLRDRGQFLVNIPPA

T8: SNTB2, Q13425
T8 sequence (Q13425 110-208, limits assumed, looked up): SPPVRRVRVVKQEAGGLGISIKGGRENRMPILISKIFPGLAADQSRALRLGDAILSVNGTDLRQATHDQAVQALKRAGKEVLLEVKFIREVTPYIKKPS

T9: MLLT4, P55196
T9 sequence (P55196 1002-1103, limits assumed, looked up): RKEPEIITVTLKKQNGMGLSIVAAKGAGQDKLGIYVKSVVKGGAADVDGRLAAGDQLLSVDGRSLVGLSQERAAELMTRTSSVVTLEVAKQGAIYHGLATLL

T10: RGS12, O14924
T10 sequence (O14924 17-108, limits assumed, looked up): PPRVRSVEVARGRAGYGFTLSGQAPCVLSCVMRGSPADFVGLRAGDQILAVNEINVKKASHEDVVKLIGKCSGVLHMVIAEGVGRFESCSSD

T11: APBA3_2, O96018
T11 sequence (O96018 480-570, limits assumed, looked up): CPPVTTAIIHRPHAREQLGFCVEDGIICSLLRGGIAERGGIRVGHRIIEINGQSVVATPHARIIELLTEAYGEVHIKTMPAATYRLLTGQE

T12: DVL1, O14640
T12 sequence (O14640 246-333, limits assumed, looked up): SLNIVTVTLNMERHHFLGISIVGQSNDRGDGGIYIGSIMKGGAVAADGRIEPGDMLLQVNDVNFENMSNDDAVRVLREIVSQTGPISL

T13: MPP1, Q00013
T13 sequence (Q00013 66-162, limits assumed, looked up): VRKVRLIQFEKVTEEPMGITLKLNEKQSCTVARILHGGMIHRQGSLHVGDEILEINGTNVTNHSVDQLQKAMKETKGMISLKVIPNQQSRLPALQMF

T14: CNKSR1, Q969H4
T14 sequence (Q969H4 191-295, limits assumed, looked up): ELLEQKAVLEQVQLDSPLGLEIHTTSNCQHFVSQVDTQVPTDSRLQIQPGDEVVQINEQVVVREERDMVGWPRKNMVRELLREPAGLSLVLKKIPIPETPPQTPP

T15: MPDZ_7, O75970
T15 sequence (O75970 1146-1253, limits assumed, looked up): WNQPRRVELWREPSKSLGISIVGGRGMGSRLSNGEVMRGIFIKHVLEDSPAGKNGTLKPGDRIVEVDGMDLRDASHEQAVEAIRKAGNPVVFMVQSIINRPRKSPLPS


What was measured:
Test in all cases: holdup assay
Parameters in all cases: key: below the threshold = too weak to quantify, mostly under pKd 3.1 to 4
Conditions in all cases: plain residues with an end cap or a label only (N-terminal biotin on a linker: ttds)
SHANK2, Q9UPX8 = biological target: T1, SHANK2, Q9UPX8
PDZD2_5, O15018 = biological target: T2, PDZD2_5, O15018
PDZD2_1, O15018 = biological target: T3, PDZD2_1, O15018
GIPC1, O14908 = biological target: T4, GIPC1, O14908
USH1C_2, Q9Y6N9 = biological target: T5, USH1C_2, Q9Y6N9
NHERF1_1, O14745 = biological target: T6, NHERF1_1, O14745
AHNAK2, Q8IVF2 = biological target: AHNAK2, Q8IVF2
Sequence of AHNAK2, Q8IVF2 (Q8IVF2 108-193): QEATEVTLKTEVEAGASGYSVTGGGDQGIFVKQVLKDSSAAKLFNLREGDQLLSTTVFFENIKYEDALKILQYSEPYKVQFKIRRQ

TJP3_2, O95049 = biological target: T7, TJP3_2, O95049
SNTB2, Q13425 = biological target: T8, SNTB2, Q13425
MLLT4, P55196 = biological target: T9, MLLT4, P55196
RGS3, P49796-9 = biological target: RGS3, P49796-9
Sequence of RGS3, P49796-9 (P49796 other isoform, or with tags, fused parts or gaps): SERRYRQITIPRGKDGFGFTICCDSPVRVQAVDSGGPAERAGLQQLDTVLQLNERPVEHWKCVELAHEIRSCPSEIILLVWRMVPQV

RGS12, O14924 = biological target: T10, RGS12, O14924
APBA3_2, O96018 = biological target: T11, APBA3_2, O96018
DVL1, O14640 = biological target: T12, DVL1, O14640
MPP1, Q00013 = biological target: T13, MPP1, Q00013
CNKSR1, Q969H4 = biological target: T14, CNKSR1, Q969H4
MAGIX, Q9H6Y5 = biological target: MAGIX, Q9H6Y5
Sequence of MAGIX, Q9H6Y5 (Q9H6Y5 118-211): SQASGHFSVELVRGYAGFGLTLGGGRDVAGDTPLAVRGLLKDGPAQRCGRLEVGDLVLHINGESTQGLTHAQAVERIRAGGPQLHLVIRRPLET

MPDZ_7, O75970 = biological target: T15, MPDZ_7, O75970
MAGI1_6, Q96QZ7 = biological target: MAGI1_6, Q96QZ7
Sequence of MAGI1_6, Q96QZ7 (Q96QZ7 1146-1238): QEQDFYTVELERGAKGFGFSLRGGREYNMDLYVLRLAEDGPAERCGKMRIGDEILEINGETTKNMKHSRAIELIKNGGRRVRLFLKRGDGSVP

SDCBP_1, O00560 = biological target: SDCBP_1, O00560
Sequence of SDCBP_1, O00560 (O00560 111-198): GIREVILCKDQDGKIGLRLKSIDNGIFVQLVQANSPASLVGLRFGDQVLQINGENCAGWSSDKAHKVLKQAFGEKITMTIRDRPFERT

RIMS1, Q86UR5 = biological target: RIMS1, Q86UR5
Sequence of RIMS1, Q86UR5 (Q86UR5 584-692): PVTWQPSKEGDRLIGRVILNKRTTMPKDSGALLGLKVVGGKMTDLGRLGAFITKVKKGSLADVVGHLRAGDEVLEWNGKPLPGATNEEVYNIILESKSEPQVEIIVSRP

Binder	pKd (SHANK2, Q9UPX8)	pKd (PDZD2_5, O15018)	pKd (PDZD2_1, O15018)	pKd (GIPC1, O14908)	pKd (USH1C_2, Q9Y6N9)	pKd (NHERF1_1, O14745)	pKd (AHNAK2, Q8IVF2)	pKd (TJP3_2, O95049)	pKd (SNTB2, Q13425)	pKd (MLLT4, P55196)	pKd (RGS3, P49796-9)	pKd (RGS12, O14924)	pKd (APBA3_2, O96018)	pKd (DVL1, O14640)	pKd (MPP1, Q00013)	pKd (CNKSR1, Q969H4)	pKd (MAGIX, Q9H6Y5)	pKd (MPDZ_7, O75970)	pKd (MAGI1_6, Q96QZ7)	pKd (SDCBP_1, O00560)	further results
QSARYRDTEL [TJP2, Q9UDY2]	below the threshold	below the threshold	below the threshold	below the threshold	below the threshold	below the threshold	below the threshold	below the threshold	below the threshold	below the threshold	below the threshold	below the threshold	below the threshold	below the threshold	below the threshold	below the threshold	below the threshold	below the threshold	4.71	below the threshold	pKd (RIMS1, Q86UR5): below the threshold
PKTPPTDTSV [KIR3DL3, Q8N743]	below the threshold	below the threshold	4.3	below the threshold	below the threshold	below the threshold	below the threshold	below the threshold	below the threshold	below the threshold	below the threshold	below the threshold	below the threshold	below the threshold	below the threshold	below the threshold	below the threshold	below the threshold	4.22	below the threshold	pKd (RIMS1, Q86UR5): below the threshold
RSLEEEESQL [GRASP, Q7Z6J2]	4.33	4.22	below the threshold	4.1	below the threshold	4.46	4.3	below the threshold	below the threshold	below the threshold	below the threshold	below the threshold	4.18	below the threshold	below the threshold	below the threshold	below the threshold	below the threshold	below the threshold	below the threshold	pKd (RIMS1, Q86UR5): below the threshold
SSRTRRETQL [HPV16-E6, P03126]	below the threshold	below the threshold	below the threshold	4.13	3.92	4.15	below the threshold	below the threshold	4.12	below the threshold	below the threshold	4.37	below the threshold	below the threshold	below the threshold	below the threshold	below the threshold	4.22	below the threshold	below the threshold	pKd (RIMS1, Q86UR5): below the threshold
SRPQRTQTQV [HPV67-E6, A4U7F2]	below the threshold	below the threshold	below the threshold	below the threshold	below the threshold	below the threshold	below the threshold	below the threshold	below the threshold	below the threshold	below the threshold	below the threshold	below the threshold	below the threshold	5.26	below the threshold	below the threshold	below the threshold	below the threshold	below the threshold	pKd (RIMS1, Q86UR5): below the threshold
SVWLRKETRV [CYSLTR2, Q9NS75]	below the threshold	below the threshold	below the threshold	below the threshold	below the threshold	below the threshold	below the threshold	below the threshold	5.14	below the threshold	below the threshold	below the threshold	below the threshold	4.32	6.03	below the threshold	below the threshold	4.33	below the threshold	below the threshold	pKd (RIMS1, Q86UR5): below the threshold
